Source: patent publication US20260116963A1

Legend:
[1] = molecular target: HIS-tagged human FcRn (human) (UniProt P55899); assay: SPR (Biacore 8K+), antibody captured on anti-human Fab CM4 chip, HIS-tagged human FcRn 9.8-5000 nM as analyte, pH 6.0, 25 C, steady-state fit
[2] = molecular target: HIS-tagged human IL-13 (human) (UniProt P35225); assay: BLI in-tandem epitope binning (Octet RH96): HIS-tagged human IL-13 on anti-penta-HIS biosensors, saturated with 200 nM tralokinumab-hIgG1-YTE, then 200 nM isotype-hIgG1-YTE as competing antibody; shaded cell (non-binding, <=0.1 nm)
[3] = molecular target: HIS-tagged human IL-13 (human) (UniProt P35225); assay: BLI in-tandem epitope binning (Octet RH96): HIS-tagged human IL-13 on anti-penta-HIS biosensors, first exposed to 200 nM isotype-hIgG1-YTE as saturating antibody, then 200 nM isotype-hIgG1-YTE as competing antibody; shaded cell (non-binding, <=0.1 nm)
[4] = molecular target: HIS-tagged human IL-13 (human) (UniProt P35225); assay: BLI in-tandem epitope binning (Octet RH96): HIS-tagged human IL-13 on anti-penta-HIS biosensors, saturated with 200 nM AbG, then 200 nM isotype-hIgG1-YTE as competing antibody; shaded cell (non-binding, <=0.1 nm)
[5] = molecular target: HIS-tagged human IL-13 (human) (UniProt P35225); assay: BLI in-tandem epitope binning (Octet RH96): HIS-tagged human IL-13 on anti-penta-HIS biosensors, saturated with 200 nM Ref1, then 200 nM isotype-hIgG1-YTE as competing antibody; shaded cell (non-binding, <=0.1 nm)

Sequence of HIS-tagged human IL-13 (human) (P35225 other isoform, or with tags, fused parts or gaps limits assumed): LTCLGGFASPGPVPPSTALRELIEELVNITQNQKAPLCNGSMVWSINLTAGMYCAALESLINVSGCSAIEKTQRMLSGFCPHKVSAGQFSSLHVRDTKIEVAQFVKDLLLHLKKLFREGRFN

| Kd [1] [nM] | BLI response of the competing antibody [2] [nm] | BLI response of the competing antibody [3] [nm] | BLI response of the competing antibody [4] [nm] | BLI response of the competing antibody [5] [nm] | Substance |
| --- | --- | --- | --- | --- | --- |
| 1160 | – | – | – | – | isotype-hIgG1 (antibody) |
| 155 | -0.023 | 0 | -0.018 | -0.036 | isotype-hIgG1-YTE (antibody) |
| 156 | – | – | – | – | isotype-hIgG1-YTE-TM (antibody) |
| 1190 | – | – | – | – | isotype-hIgG4 (antibody) |
